Among the data in patent publication US20200216532A1 are Binding (RU), % reduction and ECLU confirmatory assay values, retold here.

Test [1] concerns the target analytical polyclonal antibody generated in Example 2. Nature of the test: SPR Biacore T100, polyclonal immobilized, 500 nM ISV. (In general: Surface plasmon resonance follows binding to a sensor surface in real time, without labels.)
Test [2] concerns the target antibodies against ISV in serum sample IHUS#B09032311A1. Nature of the test: ECL drug-displacement assay vs labelled SEQ ID NO:1.
In test [3] the target is antibodies against ISV in serum sample IHUS#B09032311A20. Described as above.
In test [4] the target is antibodies against ISV in serum sample IHUS#B09032311A3. Described as above.
In test [5] the target is affinity purified antibody IHuP#002-001-ABL-08. Description: bridging/competition ADA assay, 10 ug/ml ISV vs labelled ISV.

B1: NB 3.12 (VHH)
VHH: EVQLVESGGGLVQAGGSLRLSCAASRSIGRLDRMGWYRHRPGEPRELVATITGGSSINYGDSVKGRFTISIDNSKNTVYLQMNSLRPEDTAVYYCNFNKYVTSRDTWGQGTQVTVSS
For the molecule B1, in test [1], the Binding (RU) at end of injection stood at 86 RU.

B2: NB 3.14 (VHH)
VHH: EVQLVESGGGLVQPGGSLRLSCAASRSIGRLDRMGWYRHRPGEPRELVATITGGSSINYGDSVKGRFTISIDNSKNTVYLQMNSLRPEDTAVYYCNFNKYVTSRDTWGQGTLVQVSS
B2 registered a Binding (RU) at end of injection in test [1] of 79 RU.

B3: NB 3.15 (VHH)
VHH: EVQLVESGGGSVQPGGSLRLSCAASRSIGRLDRMGWYRHRPGEPRELVATITGGSSINYGDSVKGRFTISIDNSKNTVYLQMNSLRPEDTAVYYCNFNKYVTSRDTWGQGTLVTVSS
In the case of B3, in test [1], the Binding (RU) at end of injection is 22 RU.

B4: NB 3.11 (VHH)
VHH: EVQLVESGGGLVQPGGSLRLSCAASRSIGRLDRMGWYRHRPGEPRELVATITGGSSINYGDSVKGRFTISIDNSKNTVYLQMNSLKPEDTAVYYCNFNKYVTSRDTWGQGTLVTVSS
The molecule B4 returned a Binding (RU) at end of injection in test [1] of 88 RU.

B5: NB 3.10 (VHH)
VHH: EVQLVESGGGLVQAGGSLRLSCAASRSIGRLDRMGWYRHRPGEPRELVATITGGSSINYGDSVKGRFTISIDNSKNTVYLQMNSLRPEDTAVYYCNFNKYVTSRDTWGQGTLVTVSS
For the molecule B5, in test [1], the Binding (RU) at end of injection turned out to be 91 RU.

B6: NB 3.13 (VHH)
VHH: EVQLVESGGGLVQPGGSLRLSCAASRSIGRLDRMGWYRHRPGEPRELVATITGGSSINYGDSVKGRFTISIDNSKNTVYLQMNSLRPEDTAVYYCNFNKYVTSRDTWGQGTQVTVSS
For the molecule B6, the Binding (RU) at end of injection in test [1] amounted to 90 RU.

B7: SEQ ID NO: 23, Wildtype VHH (VHH)
VHH: EVQLVESGGGLVQAGGSLRLSCAASGRTFNNYAMGWFRRAPGKEREFVAAITRSGVRSGVSAIYGDSVKDRFTISRDNAKNTLYLQMNSLKPEDTAVYTCAASAIGSGALRRFEYDYSGQGTQVTVSS
On to B7, for which the % reduction is 4% in test [2], 53% in test [3], 20% in test [4] and 7.3% in test [5]. Also, the ECLU confirmatory assay in test [2] turned out to be 60 ECLU; in test [3], 8680 ECLU; in test [4], 1780 ECLU; in test [5], 2710 ECLU.

B8: SEQ ID NO: 30, Wildtype VHH + A14P + R39Q + K83R + T91Y + Q108L + 3 A's at C-terminus (A114 + A115 + A116) (VHH)
VHH: EVQLVESGGGLVQPGGSLRLSCAASGRTFNNYAMGWFRQAPGKEREFVAAITRSGVRSGVSAIYGDSVKDRFTISRDNAKNTLYLQMNSLRPEDTAVYYCAASAIGSGALRRFEYDYSGQGTLVTVSS
Turning to B8, the figures for the % reduction in test [4] and in test [5] were 13% and -13.1%, respectively. The molecule also registered an ECLU confirmatory assay in test [5] of 3300 ECLU.

B9: SEQ ID NO: 24, Wildtype VHH + A14P (VHH)
VHH: EVQLVESGGGLVQPGGSLRLSCAASGRTFNNYAMGWFRRAPGKEREFVAAITRSGVRSGVSAIYGDSVKDRFTISRDNAKNTLYLQMNSLKPEDTAVYTCAASAIGSGALRRFEYDYSGQGTQVTVSS
Turning to B9, the % reduction in test [2] came to 10%; in test [3], 96%; in test [4] it was 91%; in test [5], 90.8%. For the same molecule, the ECLU confirmatory assay in test [2] was found to be 56 ECLU; in test [3] it was 668 ECLU; in test [4], 205 ECLU; in test [5], 268 ECLU.

B10: SEQ ID NO: 27, Wildtype VHH + A14P + K83R + Q108L (VHH)
VHH: EVQLVESGGGLVQPGGSLRLSCAASGRTFNNYAMGWFRRAPGKEREFVAAITRSGVRSGVSAIYGDSVKDRFTISRDNAKNTLYLQMNSLRPEDTAVYTCAASAIGSGALRRFEYDYSGQGTLVTVSS
In the case of B10, in test [5], the % reduction worked out at 89.1% and the ECLU confirmatory assay came to 319 ECLU.

B11: SEQ ID NO: 25, Wildtype VHH + K83R (VHH)
VHH: EVQLVESGGGLVQAGGSLRLSCAASGRTFNNYAMGWFRRAPGKEREFVAAITRSGVRSGVSAIYGDSVKDRFTISRDNAKNTLYLQMNSLRPEDTAVYTCAASAIGSGALRRFEYDYSGQGTQVTVSS
As for B11, the % reduction is 1% in test [2], 63% in test [3], 37% in test [4] and 15.7% in test [5]. Besides, the ECLU confirmatory assay in test [2] came out at 62 ECLU; in test [3], 6910 ECLU; in test [4], 1400 ECLU; in test [5], 2460 ECLU.

B12: SEQ ID NO: 28, Wildtype VHH + A14P + R39Q + K83R + T91Y + Q108L (VHH)
VHH: EVQLVESGGGLVQPGGSLRLSCAASGRTFNNYAMGWFRQAPGKEREFVAAITRSGVRSGVSAIYGDSVKDRFTISRDNAKNTLYLQMNSLRPEDTAVYYCAASAIGSGALRRFEYDYSGQGTLVTVSS
B12: the % reduction in test [4] was 90%. Also, in test [5], the % reduction turned out to be 91.4% and the ECLU confirmatory assay stood at 251 ECLU.

B13: SEQ ID NO: 26, Wildtype VHH + Q108L (VHH)
VHH: EVQLVESGGGLVQAGGSLRLSCAASGRTFNNYAMGWFRRAPGKEREFVAAITRSGVRSGVSAIYGDSVKDRFTISRDNAKNTLYLQMNSLKPEDTAVYTCAASAIGSGALRRFEYDYSGQGTLVTVSS
Regarding B13, the % reduction was 5% in test [2], 62% in test [3], 31% in test [4] and 13.2% in test [5]. Further, the ECLU confirmatory assay in test [2] is 59 ECLU; in test [3] it was 6990 ECLU; in test [4], 1530 ECLU; in test [5], 2530 ECLU.

B14: SEQ ID NO: 29, Wildtype VHH + A14P + R39Q + K83R + T91Y + Q108L + 1 additional A at C-terminus (A114) (VHH)
VHH: EVQLVESGGGLVQPGGSLRLSCAASGRTFNNYAMGWFRQAPGKEREFVAAITRSGVRSGVSAIYGDSVKDRFTISRDNAKNTLYLQMNSLRPEDTAVYYCAASAIGSGALRRFEYDYSGQGTLVTVSS
B14: the % reduction in test [4] is 18%. In test [5], the % reduction came out at 58.6% and the ECLU confirmatory assay turned out to be 1210 ECLU.
